Assay results as given in US20220169740A1 (KINDRED BIOSCIENCES, published 2022).

Key:
[1] = molecular target: T1, human NGF (Sino Biological, Inc.; Catalog No. 11050-HNAC) (human, UniProt P01138 122-241, limits assumed, biotinylated in the Octet assay of Example 3 (sites not given); not biotinylated in the TF1 assay); assay: cell-based or functional assay
[2] = molecular target: T1, human NGF (Sino Biological, Inc.; …); assay: BLI (Octet); biotinylated human NGF on streptavidin tips, TrkA-Fc 25 ug/mL; 1:1 fit
Description: Binding activity of canine, feline, and equine TrkA ECD v2 and v3 fusion polypeptides prepared in Example 2 (SEQ ID NOs: 16, 17, 19, 20, 22, and 23) to commercially-available human NGF was considered. The binding analysis was performed using a biosensor Octet as follows. Briefly, human NGF (Sino Biological, Inc.; Catalog No. 11050-HNAC) was biotinylated. The free unreacted biotin was removed from biotinylated NGF by extensive dialysis. Biotinylated NGF was captured on streptavidin sensor tips. The association of NGF with TrkA-Fc (25 ug/mL) was monitored for 600 seconds. Dissociation was monitored for 600 seconds. A buffer only blank curve was subtracted to correct for any drift. The data were fit to a 1:1 binding model using ForteBio™ data analysis software to determine the kₒₙ, koff, and the Kd. The buffer for dilutions and all binding steps was: 20 mM phosphate, 150 mM NaCl, pH 7.2.
FIG. 1 and FIG. 2 are sensorgrams showing that canine, feline, and equine TrkA ECD v2 and v3 fusion polypeptides all bind NGF. […] Irrelevant canine and feline IgG-Fc fusion proteins were used as a negative control.

T1 sequence (P01138 122-241 limits assumed): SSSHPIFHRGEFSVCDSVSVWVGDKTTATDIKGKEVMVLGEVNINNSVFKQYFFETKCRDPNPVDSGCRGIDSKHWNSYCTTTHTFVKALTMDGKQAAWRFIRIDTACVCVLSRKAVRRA

B1: Equine TrkA ECD v2-variant equine IgG2 Fc (Protein A+, C1q-, CD16-) (Fc fusion)
chain: VSFPASVHLQTAVEQHHWCIPFSVDGQPAPTLRWLFNGSVLNETSFIFTEFLESAANETMRHGCLRLNQPTHVNNGNYTLLATNPYGQDSASVMVAFMDNPFEFNPEDPIPVSFSPVDTNSTSRDPPCVLSAEGVIPIPSVPKPQCPPYTHSKFLGGPSVFIFPPNPKDTLMISRTPVVTCVVVNLSDQYPDVQFSWYVDNTEVHSAITKQREAQFNSTYRVVSVLPIQHQDWLSGKEFKCSVTNVGVPQPISRAISRGKGPSRVPQVYVLPPHPDELAKSKVSVTCLVKDFYPPDISVEWQSNRWPELEGKYSTTPAQLDGDGSYFLYSKLSLETSRWQQVESFTCAVMHEALHNHYTKTDISESLGK
notes: CHO; also called equine TrkA ECD v2 fusion polypeptide; equine TrkA v2
- IC50, TF1 cell proliferation assay (CellTiter-Glo luminescence; NGF at 10 ng/ml) [1]: 5.4 nM
- Kd [2]: ~1 nM
